T1: Brn2 DNA-binding domain (BD-Brn2) (Mus musculus (B6), UniProt P31360 336-435)
T1 sequence: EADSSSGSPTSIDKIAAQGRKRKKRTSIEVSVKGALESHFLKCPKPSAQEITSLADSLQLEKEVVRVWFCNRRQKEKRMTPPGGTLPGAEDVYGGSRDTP

T2: Oct6 DNA-binding domain (BD-Oct6) (Mus musculus (B6), UniProt P21952 317-416)
T2 sequence: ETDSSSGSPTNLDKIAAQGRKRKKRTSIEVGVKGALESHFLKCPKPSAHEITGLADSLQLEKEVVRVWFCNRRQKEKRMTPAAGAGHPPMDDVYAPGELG

B1: 56 (dsDNA)
DNA 1: GGGGGACACTTATACAATAATAGTATTTATTAATAGTATCCCCC
DNA 2: GGGGGATACTATTAATAAATACTATTATTGTATAAGTGTCCCCC
B2: 44 (dsDNA)
DNA 1: GGGGGAAACCATGGGGGGTGGGCTGTAAACACAAAAAGGATTCCCCCC
DNA 2: GGGGGGAATCCTTTTTGTGTTTACAGCCCACCCCCCATGGTTTCCCCC
B3: 45 (dsDNA)
DNA 1: GGGGGAAATGTGCTTTATTTCACAAAATCAACAACCCCC
DNA 2: GGGGGTTGTTGATTTTGTGAAATAAAGCACATTTCCCCC
B4: 49 (dsDNA)
DNA 1: GGGGGCTCTCTGATTTGTGAGTATTGACAGAGAATCCCCC
DNA 2: GGGGGATTCTCTGTCAATACTCACAAATCAGAGAGCCCCC
B5: 65 (dsDNA)
DNA 1: GGGGGGTACTTGGTGATAATTTCATTGTCCACATGCCCCCC
DNA 2: GGGGGGCATGTGGACAATGAAATTATCACCAAGTACCCCCC
B6: 53 (dsDNA)
DNA 1: GGGGGTGCTTGTGACAAATCTGTCAATTTCTGGTGGGGGCCCCCC
DNA 2: GGGGGGCCCCCACCAGAAATTGACAGATTTGTCACAAGCACCCCC
B7: 66 (dsDNA)
DNA 1: GGGGGGGAACTCCCTTAAATTTGGTTTGTTTATGTGTCCCCC
DNA 2: GGGGGACACATAAACAAACCAAATTTAAGGGAGTTCCCCCCC
B8: 61 (dsDNA)
DNA 1: GGGGGTAAATTTTTCTAATCCTGACAAATCTCTTCACCCCC
DNA 2: GGGGGTGAAGAGATTTGTCAGGATTAGAAAAATTTACCCCC
B9: 43 (dsDNA)
DNA 1: GGGGGAGGAGTGCTTTGTAAAAATAACTTCTATGTCCCCC
DNA 2: GGGGGACATAGAAGTTATTTTTACAAAGCACTCCTCCCCC
B10: 55 (dsDNA)
DNA 1: GGGGGGTAGATTATTTGTCCACCATTCACAAGCACTGAGTTCAATAACCCCCC
DNA 2: GGGGGGTTATTGAACTCAGTGCTTGTGAATGGTGGACAAATAATCTACCCCCC
B11: 54 (dsDNA)
DNA 1: GGGGGAGGTGTTAAGTGTGGAGTCGTGAGAACAACAATCCAGATAGCCCCC
DNA 2: GGGGGCTATCTGGATTGTTGTTCTCACGACTCCACACTTAACACCTCCCCC
B12: 57 (dsDNA)
DNA 1: GGGGGCCTAAGATTCTTAATCTGACATTGTAGTCCCTACCCCC
DNA 2: GGGGGTAGGGACTACAATGTCAGATTAAGAATCTTAGGCCCCC
B13: 59 (dsDNA)
DNA 1: GGGGGAGCTTTTAACAATTTAATTTTGTCTCTACCTCCCCC
DNA 2: GGGGGAGGTAGAGACAAAATTAAATTGTTAAAAGCTCCCCC
B14: 67 (dsDNA)
DNA 1: GGGGGGCATATGCATTGTCTGTGTATTCTAAATGTATCCCCC
DNA 2: GGGGGATACATTTAGAATACACAGACAATGCATATGCCCCCC
B15: 52 (dsDNA)
DNA 1: GGGGGGGGGCAGCACAAATATTTCTGTGAATGTACCCCC
DNA 2: GGGGGTACATTCACAGAAATATTTGTGCTGCCCCCCCCC
B16: 50 (dsDNA)
DNA 1: GGGGGTTTGTAAGTTTGTACCATTTGGCCTCAGCCCCCCC
DNA 2: GGGGGGGCTGAGGCCAAATGGTACAAACTTACAAACCCCC
B17: 48 (dsDNA)
DNA 1: GGGGGATGAAATGGCTAAATCCTTTTTTTGTTGTTTGTTCCCCC
DNA 2: GGGGGAACAAACAACAAAAAAAGGATTTAGCCATTTCATCCCCC
B18: 64 (dsDNA)
DNA 1: GGGGGATATATGCACAAACACTCATTTACATAAAATAACCCCC
DNA 2: GGGGGTTATTTTATGTAAATGAGTGTTTGTGCATATATCCCCC
B19: 63 (dsDNA)
DNA 1: GGGGGAGAAATCCTCAATTTCCTTATCCACAAAATGGACATTTTCCTAGTACCTCCCCC
DNA 2: GGGGGAGGTACTAGGAAAATGTCCATTTTGTGGATAAGGAAATTGAGGATTTCTCCCCC
B20: 60 (dsDNA)
DNA 1: GGGGGAATTTAATTTTGTCTCTACCTTTCACGCTTCTCCTTTGCATTTTCCCCCC
DNA 2: GGGGGGAAAATGCAAAGGAGAAGCGTGAAAGGTAGAGACAAAATTAAATTCCCCC
B21: 46 (dsDNA)
DNA 1: GGGGGTTATTTCACAAAATCAACAAATCAAAAAGCCCCC
DNA 2: GGGGGCTTTTTGATTTGTTGATTTTGTGAAATAACCCCC
B22: 47 (dsDNA)
DNA 1: GGGGGCCACCATCTGTAATGTCCTTGGCACAATAAAACCAACCCCC
DNA 2: GGGGGTTGGTTTTATTGTGCCAAGGACATTACAGATGGTGGCCCCC
B23: 58 (dsDNA)
DNA 1: GGGGGTGAGATGGAGGAAATAAGTCTTATTGTTGTTCTCCCCCCC
DNA 2: GGGGGGGAGAACAACAATAAGACTTATTTCCTCCATCTCACCCCC
B24: 62 (dsDNA)
DNA 1: GGGGGTTTAAACAATTGTCCCATTCATTATATTGCAACACCCCC
DNA 2: GGGGGTGTTGCAATATAATGAATGGGACAATTGTTTAAACCCCC
B25: 51 (dsDNA)
DNA 1: GGGGGGTCCGGCTTTTGTTGATTTGCTTATCTATCCCCC
DNA 2: GGGGGATAGATAAGCAAATCAACAAAAGCCGGACCCCCC

Molecular target: Pax6 DNA-binding domain (BD-Pax6) (Mus musculus (B6), UniProt P63015 190-289)
Test: EMSA; 10% glycerol, 20 mM HEPES pH 7.8, 45 mM KCl, 10 mM NaCl, 1 mM EDTA, 1 mM DTT, 0.2 ug/uL BSA, 0.1% NP-40, 50 ng poly-dIdC; 20 ng each GST protein; room temperature 30 min (heterodimers 4 C); 6% PAGE 0.25x TBE
Details: protein: recombinant; tags: GST (N-terminal, pGEX-6P-1); label: 32P-dCTP fill-in of the 5' (dG)5 overhangs of both strands (Methods; control probes are given with GGG)
Method in brief: (§1)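 DNA binding of transcription factor DNA-binding domains to candidate cis-elements was read from band radioactivity in the expected shift region. The GST-tagged domains came from E. coli BL21 via glutathione-sepharose; probes were annealed oligonucleotides labelled with 32P-dCTP. Each assay used 20 ng protein, 40,000–50,000 cpm probe and 50 ng poly-dIdC for 30 min at room temperature, followed by 6% polyacrylamide electrophoresis in 0.25×TBE at 4°C.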

Chain of Pax6 DNA-binding domain (BD-Pax6) (P63015 190-289): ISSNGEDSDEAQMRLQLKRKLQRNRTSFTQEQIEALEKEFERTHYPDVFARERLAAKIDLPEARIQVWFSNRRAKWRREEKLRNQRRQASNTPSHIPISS

Row | Binder | binding result
1 | B1 | binds
2 | B2 | no binding
3 | B3 | binds
4 | B4 | no binding
5 | B5 | binds
6 | B6 | no binding
7 | B7 | binds
8 | B8 | binds
9 | B9 | no binding
10 | B10 | no binding
11 | B11 | no binding
12 | B12 | binds
13 | B13 | binds
14 | B14 | no binding
15 | B15 | no binding
16 | B16 | no binding
17 | B17 | binds
18 | B18 | binds
19 | B19 | binds
20 | B20 | binds
21 | B21 | binds
22 | B22 | no binding
23 | B23 | no binding
24 | B24 | binds
25 | B25 | binds

Molecular target: T1, Brn2 DNA-binding domain (BD-Brn2)
Test: as above
Details: protein: recombinant; tags: GST (N-terminal, pGEX-6P-1); label: 32P-dCTP fill-in of the 5' (dG)5 overhangs of both strands (Methods; control probes are given with GGG)
Method in brief: as §1

Row | Binder | binding result
26 | B1 | binds
27 | B2 | no binding
28 | B3 | no binding
29 | B4 | no binding
30 | B5 | binds
31 | B6 | no binding
32 | B7 | no binding
33 | B8 | no binding
34 | B9 | no binding
35 | B10 | no binding
36 | B11 | no binding
37 | B12 | no binding
38 | B13 | binds
39 | B14 | no binding
40 | B15 | no binding
41 | B16 | no binding
42 | B17 | no binding
43 | B18 | binds
44 | B19 | no binding
45 | B20 | binds
46 | B21 | no binding
47 | B22 | no binding
48 | B23 | no binding
49 | B24 | binds
50 | B25 | no binding

Molecular target: T2, Oct6 DNA-binding domain (BD-Oct6)
Test: as above
Details: protein: recombinant; tags: GST (N-terminal, pGEX-6P-1); label: 32P-dCTP fill-in of the 5' (dG)5 overhangs of both strands (Methods; control probes are given with GGG)
Method in brief: as §1

Row | Binder | binding result
51 | B1 | binds
52 | B2 | no binding
53 | B3 | binds
54 | B4 | no binding
55 | B5 | binds
56 | B6 | no binding
57 | B7 | binds
58 | B8 | binds
59 | B9 | no binding
60 | B10 | binds
61 | B11 | binds
62 | B12 | binds
63 | B13 | binds
64 | B14 | no binding
65 | B15 | no binding
66 | B16 | no binding
67 | B17 | no binding
68 | B18 | binds
69 | B19 | binds
70 | B20 | binds
71 | B21 | binds
72 | B22 | binds
73 | B23 | binds
74 | B24 | binds
75 | B25 | no binding
